According to the supplement of paper PMC10567573:
± gives the standard deviation.

Assay: protein stability index of a GFP-peptide fusion (GPS, HEK-293T) (PSI 1-6); higher = more stable
[1] = treatment: DMSO, c terminus: a fixed tail appended
[2] = treatment: MLN4924 1 uM, 8 h, c terminus: a fixed tail appended
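Also: 24-mer peptide tiles fused after GFP, lentivirally expressed, FACS-sorted into six equal bins by GFP/DsRed ratio, decoded by Illumina sequencing, PSI is the read-weighted mean bin number.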

Sequence WLEDEPGRGAQGENERVRGLETGD [ZSWIM9] has a protein stability index [1] of 5.49 ± 0.32 and a protein stability index [2] of 5.48 ± 0.18.

Work on KHSTFGQSLTQRLHALKLRSPDAS [GNAS] yielded a protein stability index [1] of 3.37 ± 0.29 and a protein stability index [2] of 3.44 ± 0.2.

WASTSPGTDLPLSEIPRGVRVALD [TRIM15] gave a protein stability index [1] of 3.91 ± 0.29 and a protein stability index [2] of 3.87 ± 0.26.

For LGKESFYDTFHTVADMMYFCQMLA [HACD3], the protein stability index [1] was 2.56 ± 0.92 and the protein stability index [2] was 3.15 ± 0.99.

Sequence RVLKAYTLYRPEEGYCQAQAPIAA [TBC1D10A] has a protein stability index [1] of 2.08 ± 0.29 and a protein stability index [2] of 2.16 ± 0.21.

Sequence VNPFQLQQFRADPSTASLLLCPGG [TIAF1] has a protein stability index [1] of 2.93 ± 0.11 and a protein stability index [2] of 2.78 ± 0.14.

GLDFHRFYFENLWSRNSKPVHTTI [CAMK2A] showed a protein stability index [1] of 2.28 ± 0.58 and a protein stability index [2] of 2.11 ± 0.32.

EIPENYNSAMPFKILYDDGKMVEE [PTPRD] showed a protein stability index [1] of 4.55 ± 0.2 and a protein stability index [2] of 4.79 ± 0.071.

With IPGEHFWLLLLTRGLVGVGEASYS [SPNS1] the protein stability index [1] was 3.1 ± 0.47 and the protein stability index [2] was 2.37 ± 0.58.

GGDKLETMPLYLEDDIRPDIKDDI [SCD] gave a protein stability index [1] of 4.9 ± 0.4 and a protein stability index [2] of 5 ± 0.34.

Work on AKARDLYKGRQLQGCPGAKKHEFL [SMOC2] yielded a protein stability index [1] of 3.03 ± 0.3 and a protein stability index [2] of 3.2 ± 0.34.

For KMQQSKNQVVSSTNGELNTDDPTA [CSNK1G3], the protein stability index [1] was 5.37 ± 0.21 and the protein stability index [2] was 5.34 ± 0.13.

Sequence RALATSNARAQQRAAAQQRRSFLN [GNAS] has a protein stability index [1] of 4.02 ± 0.15 and a protein stability index [2] of 4.3 ± 0.13.

With DFDLDLVPWESDIWDINNQICTVK [ATF6] the protein stability index [1] was 3.06 ± 0.3 and the protein stability index [2] was 3 ± 0.21.

Work on KRKMVSWEASSLGLVTAALHMVIV [KMT2E] yielded a protein stability index [1] of 2.53 ± 0.62 and a protein stability index [2] of 3.33 ± 0.57.

In the case of TIIEPAGESDNPLRFTSGLVVALD [INTS4], the protein stability index [1] is reported as 3.07 ± 0.37 and the protein stability index [2] is reported as 3.24 ± 0.54.

With LCARLAAGPGAAEPLPVERDPAAG [ZNF511] the protein stability index [1] was 4.47 ± 0.21 and the protein stability index [2] was 4.6 ± 0.21.

For GGAGSSEDDAQSRRDEQDDDDKGD [GOLPH3], the protein stability index [1] was 5.57 ± 0.24 and the protein stability index [2] was 5.69 ± 0.28.

With LRRSVEKYNSARADFEQKMLDSAL [FCHO1] the protein stability index [1] was 3.29 ± 0.54 and the protein stability index [2] was 3.35 ± 0.14.

For APLVQPSKNDNGKPDSVGLPPCAV [PCMTD1], the protein stability index [1] was 5.09 ± 0.15 and the protein stability index [2] was 5.07 ± 0.22.

Work on TNLTVTMDQLQGLGSDYEQPLEVK [CDC25A] yielded a protein stability index [1] of 4.61 ± 0.16 and a protein stability index [2] of 4.69 ± 0.24.

In the case of PTYKGLLMSLQNQLKESKSKIDAL [CEP70], the protein stability index [1] is reported as 2.45 ± 0.22 and the protein stability index [2] is reported as 2.86 ± 0.19.

DDLTSVTNHGYRVQVENPERFSSA [TRIM35] showed a protein stability index [1] of 4.44 ± 0.24 and a protein stability index [2] of 4.588 ± 0.031.

With HQADLEVANRHGHTCLMISCYKGH [FEM1A] the protein stability index [1] was 2.73 ± 0.33 and the protein stability index [2] was 2.69 ± 0.45.

RPRYKADVPDLQSVCSCTCYRSQD [KCNK9] gave a protein stability index [1] of 3.34 ± 0.41 and a protein stability index [2] of 3.67 ± 0.23.

With GEVLSYLELAQFHNAHQLAAWCLH [RHOBTB1] the protein stability index [1] was 2.7 ± 0.81 and the protein stability index [2] was 2.35 ± 0.25.

Sequence KYGGPNHHLPLPDNWKSQVEPETR [CPN1] has a protein stability index [1] of 4.16 ± 0.3 and a protein stability index [2] of 4.55 ± 0.28.

For GEESSKAKEVTIAKADTTSTVTPV [EHMT1], the protein stability index [1] was 5.55 ± 0.27 and the protein stability index [2] was 5.45 ± 0.078.

In the case of VLQMWHIVDKCTELLREGRASATT [ZBTB22], the protein stability index [1] is reported as 2.19 ± 0.29 and the protein stability index [2] is reported as 2.25 ± 0.41.

With NSFGLRFGKREAAPGNHGRSAGRG [KISS1] the protein stability index [1] was 4.44 ± 0.4 and the protein stability index [2] was 4.4 ± 0.46.

In the case of FQESASTPETRAKFTQDNLCRAQR [TEKT4], the protein stability index [1] is reported as 4.48 ± 0.18 and the protein stability index [2] is reported as 4.4 ± 0.25.

With TFVNVYIASFIRGPNPSKLIQQFL [CDS2] the protein stability index [1] was 2.4 ± 0.65 and the protein stability index [2] was 2.73 ± 0.6.

LSSIKRDTNSIAKAIKARGEVIHC [STX11] gave a protein stability index [1] of 3.22 ± 0.19 and a protein stability index [2] of 3.32 ± 0.2.

For DVQARLNRSDHGIFHSRTSLQKLS [FCHSD1], the protein stability index [1] was 3.09 ± 0.22 and the protein stability index [2] was 3.16 ± 0.3.

EPFPSSDDSPRSALAAATAAAAAA [SPAG8] gave a protein stability index [1] of 5.2 ± 0.16 and a protein stability index [2] of 5.05 ± 0.18.

AEKKREAKQRAKEAQERELRKREK [LRRC59] gave a protein stability index [1] of 5.38 ± 0.12 and a protein stability index [2] of 5.33 ± 0.11.

In the case of HQVTVNESLLAPLNVELDPEIQKV [KRT71], the protein stability index [1] is reported as 4.73 ± 0.2 and the protein stability index [2] is reported as 4.45 ± 0.15.

LLLGLKDREGYTSFWNDCISSGLR [GOLPH3] showed a protein stability index [1] of 2.43 ± 0.5 and a protein stability index [2] of 2.11 ± 0.23.

In the case of MEVAMVSAESSGCNSHMPYGYAAQ [KCNA4], the protein stability index [1] is reported as 2.95 ± 0.15 and the protein stability index [2] is reported as 3.32 ± 0.5.

With EALYAQDPSTGCYMYYFQYLSKTY [KMT5A] the protein stability index [1] was 3.26 ± 0.94 and the protein stability index [2] was 2.42 ± 1.1.

Work on AAAGAVGLERRDWSPSPPATPEQG [SPDEF] yielded a protein stability index [1] of 5.09 ± 0.26 and a protein stability index [2] of 5.18 ± 0.17.

For YRIRQVNIYYYLEDDSMSVIEPVV [EFHC1], the protein stability index [1] was 2.87 ± 0.31 and the protein stability index [2] was 2.55 ± 0.55.

Sequence KNHVGKPLLKMDLNSEQAEQLERI [FAM98B] has a protein stability index [1] of 4.8 ± 0.16 and a protein stability index [2] of 4.67 ± 0.19.

In the case of VYLANQAKNQSDEAKEAKGSGYEK [RTP4], the protein stability index [1] is reported as 4.96 ± 0.52 and the protein stability index [2] is reported as 5.08 ± 0.21.

Work on TANTFRVMFKEPIEILPNVCYTAC [BTBD1] yielded a protein stability index [1] of 2.46 ± 0.44 and a protein stability index [2] of 2.18 ± 0.3.

GVYMTDITPQGVAMRAGVLADDHL [PDZK1] gave a protein stability index [1] of 3.54 ± 0.46 and a protein stability index [2] of 3.34 ± 0.21.

In the case of RTELLKDAIGEGKVTLRIRNVRFS [MOG], the protein stability index [1] is reported as 2.68 ± 0.4 and the protein stability index [2] is reported as 2.79 ± 0.42.

In the case of PDEAARARLLQEGGGGVAAVVVLD [DUSP5], the protein stability index [1] is reported as 4.3 ± 0.46 and the protein stability index [2] is reported as 4.57 ± 0.13.

Sequence CWPMMDFLRCVTAALIYFAISITA [CMTM3] has a protein stability index [1] of 3.23 ± 0.49 and a protein stability index [2] of 3.34 ± 0.26.

With YNALKLFMEMNQKLFDDCTQQFKA [PPP2R5C] the protein stability index [1] was 2.46 ± 0.22 and the protein stability index [2] was 2.2 ± 0.24.

AADVWSLGVALFTMLAGHYPFQDS [TRIB3] gave a protein stability index [1] of 2.96 ± 0.098 and a protein stability index [2] of 2.94 ± 0.2.

SLGSALKPGEGRSALFAGNEWRRP [TRIM29] showed a protein stability index [1] of 3.46 ± 0.26 and a protein stability index [2] of 3.31 ± 0.21.

GLQSAQPTEGQGSLLTNWPSVPPT [MYBL2] gave a protein stability index [1] of 4.02 ± 0.28 and a protein stability index [2] of 4.14 ± 0.092.

Work on TSVFQKKLCTAHMCSTLEHNCAHF [MATN2] yielded a protein stability index [1] of 2.47 ± 0.22 and a protein stability index [2] of 2.8 ± 0.34.

In the case of IMDRFDCQYLMATFVNVYIASFIR [CDS2], the protein stability index [1] is reported as 3.423 ± 0.005 and the protein stability index [2] is reported as 3.33 ± 0.31.

Work on STHQEAENEKDRADQTVLTEDEKK [CHGB] yielded a protein stability index [1] of 5.35 ± 0.48 and a protein stability index [2] of 5.83 ± 0.091.

Sequence PDTMEKLRTHIDAIILALPEDLQG [DENND6A] has a protein stability index [1] of 3.02 ± 0.5 and a protein stability index [2] of 3.02 ± 0.23.

In the case of GGSRGAPGLLMAVGQDLYCYSYS [DCAF4], the protein stability index (treatment: DMSO, c terminus: native) is reported as 3.16 ± 0.42 and the protein stability index (treatment: MLN4924 1 uM, 8 h, c terminus: native) is reported as 3.1 ± 1.5.

SEKRRDPPNGPNLPMATVDIKNPE [WASL] showed a protein stability index [1] of 5.35 ± 0.11 and a protein stability index [2] of 5.28 ± 0.17.

Sequence PGHGGIMDRFDCQYLMATFVHVYI [CDS1] has a protein stability index [1] of 3.26 ± 0.46 and a protein stability index [2] of 3.1 ± 0.3.

With KTVLMIAIQLLSRMEYVHSKNLIY [CSNK1G1] the protein stability index [1] was 3.04 ± 0.1 and the protein stability index [2] was 3.23 ± 0.54.

NCNWFCEGSFNGSEKETMQFLNDR [KRT33B] showed a protein stability index [1] of 3.54 ± 0.35 and a protein stability index [2] of 3.61 ± 0.19.

For MATSRYEPVAEIGVGAYGTVYKAR [CDK4], the protein stability index [1] was 3.2 ± 0.094 and the protein stability index [2] was 3.2 ± 0.24.

Sequence RTAMPYGGYEKASKRMTFQMPKFD [MYOZ1] has a protein stability index [1] of 2.76 ± 0.18 and a protein stability index [2] of 2.86 ± 0.23.

Work on YCVPRGNRRRFRVRQPILQYRWDM [BEX1] yielded a protein stability index [1] of 2.46 ± 0.21 and a protein stability index [2] of 2.55 ± 0.17.
